In data set [1] the test system is biotinyl-Phe-oxazolone. The data set can be described thus: self-aminoacylation, catalytic enhancement (BFO) (fold over background); higher = more active; k-Seq, kA / k0A0; sequences stand for … in GGGAAUGGAUCCACAUCUACGAAUUC…UUCACUGCAGACUUGACGAAGCUG
In short, it runs like this: (§1)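 Mutagenized RNA pools (0.43 μM; 21-nt variable region) were treated with 2–1250 μM of each biotinyl-aminoacyl-oxazolone. Conditions were 50 μL HEPES/NaCl/KCl/MgCl2/CaCl2 buffer, 5% acetonitrile, pH 6.9–7.0, room temperature, 90 minutes. Catalytic enhancement, the median kA relative to the uncatalyzed rate, was derived from streptavidin capture, qPCR and Illumina sequencing.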

Data set [2] deals with biotinyl-Ile-oxazolone. The data set can be described thus: self-aminoacylation, catalytic enhancement (BIO) (fold over background); higher = more active; k-Seq, kA / k0A0; sequences stand for … in GGGAAUGGAUCCACAUCUACGAAUUC…UUCACUGCAGACUUGACGAAGCUG
The method, boiled down: as §1

In data set [3] the test system is biotinyl-Met-oxazolone. The data set can be described thus: self-aminoacylation, catalytic enhancement (BMO) (fold over background); higher = more active; k-Seq, kA / k0A0; sequences stand for … in GGGAAUGGAUCCACAUCUACGAAUUC…UUCACUGCAGACUUGACGAAGCUG
The method, boiled down: as §1

In data set [4] the test system is biotinyl-Val-oxazolone. Put plainly: self-aminoacylation, catalytic enhancement (BVO) (fold over background); higher = more active; k-Seq, kA / k0A0; sequences stand for … in GGGAAUGGAUCCACAUCUACGAAUUC…UUCACUGCAGACUUGACGAAGCUG
In short, it runs like this:
as §1

For data set [5], the system named is biotinyl-Leu-oxazolone. Put plainly: self-aminoacylation, catalytic enhancement (BLO) (fold over background); higher = more active; k-Seq, kA / k0A0; sequences stand for … in GGGAAUGGAUCCACAUCUACGAAUUC…UUCACUGCAGACUUGACGAAGCUG
The method, boiled down:
as §1

Data set [6] relates to biotinyl-Trp-oxazolone. The data set can be described thus: self-aminoacylation, catalytic enhancement (BWO) (fold over background); higher = more active; k-Seq, kA / k0A0; sequences stand for … in GGGAAUGGAUCCACAUCUACGAAUUC…UUCACUGCAGACUUGACGAAGCUG
The method, boiled down: as §1

This sample holds only a part of the variants without activity.

In the case of “AUUCACCUAGGUAAUAGGGUG [Fam2.2 aminoacylation ribozyme variant]”, the self-aminoacylation amounted to 22 in data set [1]; 2.7 in data set [2]; 4.95 in data set [3]; 2.43 in data set [4]; 5.63 in data set [5]; 4.25 in data set [6].
As to “AUUCACCUAGGUAAUCGGGUA [Fam2.2 aminoacylation ribozyme variant]”, the self-aminoacylation came out at 5.56 in data set [1]; 1.39 in data set [2]; 1.55 in data set [3]; 1.47 in data set [4]; 1.33 in data set [5]; 1.8 in data set [6].
On to “AUUCACCUAGGUAAUCGGUUG [Fam2.2 aminoacylation ribozyme variant]”, for which the self-aminoacylation is 0.536 in data set [1]; 0.71 in data set [2]; 0.735 in data set [3]; 0.687 in data set [4]; 0.91 in data set [5]; 0.967 in data set [6].
“AUUCACCUAGGUAUUCGGGUG [Fam2.2 aminoacylation ribozyme variant]”: the self-aminoacylation was 21.8 in data set [1]; 2.81 in data set [2]; 3.34 in data set [3]; 2.59 in data set [4]; 5.02 in data set [5]; 3.35 in data set [6].
Take “AUUCACCUAGGUCAACGGGUA [Fam2.2 aminoacylation ribozyme variant]”: the self-aminoacylation in data set [1] was 0.801; in data set [2], 1.41; in data set [3] it was 1.12; in data set [4] it was 1.08; in data set [5], 1.29; in data set [6] it was 1.83.
As for “AUUCACCUAGGUCAACGGGUC [Fam2.2 aminoacylation ribozyme variant]”, the self-aminoacylation in data set [1] is 0.507; in data set [2] it was 0.899; in data set [3], 0.915; in data set [4] it was 1.07; in data set [5], 0.807; in data set [6], 0.902.
Regarding “AUUCACCUAGGUCAAGGGGUG [Fam2.2 aminoacylation ribozyme variant]”, the self-aminoacylation in data set [1] was found to be 4.67; in data set [2], 1.37; in data set [3], 1.43; in data set [4] it was 1.3; in data set [5], 1.41; in data set [6], 1.3.
On to “AUUCACCUAGGUCAAUGGGUG [Fam2.2 aminoacylation ribozyme variant]”, for which the self-aminoacylation in data set [1] was found to be 6.93; in data set [2] it was 1.42; in data set [3] it was 1.75; in data set [4] it was 1.38; in data set [5] it was 2.23; in data set [6], 1.65.
Take “AUUCACCUAGGUCACCGCGUG [Fam2.2 aminoacylation ribozyme variant]”: the self-aminoacylation stood at 85.2 in data set [1]; 7.2 in data set [2]; 12.6 in data set [3]; 6.86 in data set [4]; 18.1 in data set [5]; 10.9 in data set [6].
On to “AUUCACCUAGGUCACCGGGGG [Fam2.2 aminoacylation ribozyme variant]”, for which the self-aminoacylation in data set [1] turned out to be 21.4; in data set [2], 3.62; in data set [3], 3.37; in data set [4] it was 3.51; in data set [5], 3.12; in data set [6] it was 4.38.
In the case of “AUUCACCUAGGUCACCGUGUG [Fam2.2 aminoacylation ribozyme variant]”, the self-aminoacylation in data set [1] worked out at 4.55; in data set [2] it was 1.13; in data set [3], 1.33; in data set [4] it was 1.33; in data set [5], 1.48; in data set [6], 1.24.
Consider “AUUCACCUAGGUCAGCCGGUG [Fam2.2 aminoacylation ribozyme variant]”, for which the self-aminoacylation in data set [1] is 61.6; in data set [2], 5.17; in data set [3], 7.35; in data set [4] it was 5.3; in data set [5] it was 11.3; in data set [6], 6.47.
As to “AUUCACCUAGGUCAGCGAGUG [Fam2.2 aminoacylation ribozyme variant]”, the self-aminoacylation in data set [1] amounted to 25.3; in data set [2], 3.44; in data set [3], 4.93; in data set [4] it was 3.34; in data set [5] it was 6.37; in data set [6], 5.84.
As to “AUUCACCUAGGUCAUCAGCUG [Fam2.2 aminoacylation ribozyme variant]”, the self-aminoacylation worked out at 0.631 in data set [1]; 0.757 in data set [2]; 0.806 in data set [3]; 0.757 in data set [4]; 0.804 in data set [5]; 0.477 in data set [6].
In the case of “AUUCACCUAGGUCAUCAGGCG [Fam2.2 aminoacylation ribozyme variant]”, the self-aminoacylation in data set [1] is 1.02; in data set [2] it was 1.26; in data set [3], 1.47; in data set [4] it was 1.32; in data set [5] it was 1.54; in data set [6], 1.87.
Regarding “AUUCACCUAGGUCAUCAGUUG [Fam2.2 aminoacylation ribozyme variant]”, the self-aminoacylation in data set [1] was found to be 0.935; in data set [2], 0.954; in data set [3], 0.88; in data set [4], 0.939; in data set [5] it was 0.942; in data set [6], 0.698.
For the sequence “AUUCACCUAGGUCAUCCGGCG [Fam2.2 aminoacylation ribozyme variant]”, the self-aminoacylation in data set [1] came to 15.3; in data set [2] it was 3.31; in data set [3] it was 3.55; in data set [4] it was 4.01; in data set [5] it was 3.69; in data set [6] it was 4.29.
Turning to “AUUCACCUAGGUCAUCCGGUG [Fam2.2 aminoacylation ribozyme variant]”, the self-aminoacylation is 44.9 in data set [1]; 4.67 in data set [2]; 6.35 in data set [3]; 4.69 in data set [4]; 8.38 in data set [5]; 6.3 in data set [6].
Consider “AUUCACCUAGGUCAUCGAGGG [Fam2.2 aminoacylation ribozyme variant]”, for which the self-aminoacylation was 3.09 in data set [1]; 1.58 in data set [2]; 2.19 in data set [3]; 1.43 in data set [4]; 2.89 in data set [5]; 1.1 in data set [6].
Consider “AUUCACCUAGGUCAUCGCGUG [Fam2.2 aminoacylation ribozyme variant]”, for which the self-aminoacylation in data set [1] worked out at 100; in data set [2], 7.1; in data set [3] it was 13; in data set [4], 7.35; in data set [5], 17.4; in data set [6] it was 11.5.
For “AUUCACCUAGGUCAUCGGCCG [Fam2.2 aminoacylation ribozyme variant]”, the self-aminoacylation was found to be 16.6 in data set [1]; 3.35 in data set [2]; 4.04 in data set [3]; 3.45 in data set [4]; 4.25 in data set [5]; 5.29 in data set [6].
Regarding “AUUCACCUAGGUCAUCGGCUA [Fam2.2 aminoacylation ribozyme variant]”, the self-aminoacylation came to 11.2 in data set [1]; 2.67 in data set [2]; 2.57 in data set [3]; 2.62 in data set [4]; 2.98 in data set [5]; 2.62 in data set [6].
For the sequence “AUUCACCUAGGUCAUCGGCUC [Fam2.2 aminoacylation ribozyme variant]”, the self-aminoacylation in data set [1] was found to be 5.2; in data set [2], 2.5; in data set [3] it was 2.14; in data set [4], 2.22; in data set [5], 2.45; in data set [6], 2.47.
Regarding “AUUCACCUAGGUCAUCGGGAA [Fam2.2 aminoacylation ribozyme variant]”, the self-aminoacylation in data set [1] amounted to 26; in data set [2] it was 4.54; in data set [3], 5.51; in data set [4], 4.14; in data set [5], 9.17; in data set [6] it was 6.07.
Consider “AUUCACCUAGGUCAUCGUAUG [Fam2.2 aminoacylation ribozyme variant]”, for which the self-aminoacylation in data set [1] turned out to be 0.528; in data set [2] it was 0.593; in data set [3] it was 0.503; in data set [4], 0.737; in data set [5], 0.553; in data set [6], 0.207.
